Assay results reported in patent publication US20130237472A1.

Tests used:
TNF-α [1] = experiment: competition ELISA against plate-bound TNFRI190; relative affinity from IC50
TNF-α [2] = experiment: cell-based or functional assay

| Result Affinity (%) relative to wild-type TNFRI126 (TNF-α [1]) [%] | Relative activity (cell based assay) (Folds) (TNF-α [2]) [fold] | Substance |
| --- | --- | --- |
| 100 | – | Met-TNFRI126 (from UniProt P19438 41-166) (receptor) |
| – | 1 | Met-TNFRI171 (from UniProt P19438 41-211) (receptor) |
